Measurements taken from publication PMC7166090, “A bacteriophage mimic of the bacterial nucleoid-associated protein Fis” (Biochemical Journal, 2020).

T1: His-NinH wt (Bacteriophage lambda (cI857 Sam7), UniProt P03771 1-68, A15T)
T1 sequence: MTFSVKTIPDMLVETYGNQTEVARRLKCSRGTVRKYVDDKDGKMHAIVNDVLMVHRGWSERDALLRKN

T2: His-NinH H45A (Bacteriophage lambda (cI857 Sam7), UniProt P03771 1-68, A15T;H45A)
T2 sequence: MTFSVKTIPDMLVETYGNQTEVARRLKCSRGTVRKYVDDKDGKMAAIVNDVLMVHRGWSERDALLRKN

T3: His-NinH K35A (Bacteriophage lambda (cI857 Sam7), UniProt P03771 1-68, A15T;K35A)
T3 sequence: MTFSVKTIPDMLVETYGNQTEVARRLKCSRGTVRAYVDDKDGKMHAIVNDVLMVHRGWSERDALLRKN

T4: His-NinH T32A (Bacteriophage lambda (cI857 Sam7), UniProt P03771 1-68, A15T;T32A)
T4 sequence: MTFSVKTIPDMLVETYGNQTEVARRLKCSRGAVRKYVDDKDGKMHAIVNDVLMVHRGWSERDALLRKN

T5: His-NinH S29A (Bacteriophage lambda (cI857 Sam7), UniProt P03771 1-68, A15T;S29A)
T5 sequence: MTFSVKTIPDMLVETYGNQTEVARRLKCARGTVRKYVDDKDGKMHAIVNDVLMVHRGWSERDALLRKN

T6: His-NinH R56A (Bacteriophage lambda (cI857 Sam7), UniProt P03771 1-68, A15T;R56A)
T6 sequence: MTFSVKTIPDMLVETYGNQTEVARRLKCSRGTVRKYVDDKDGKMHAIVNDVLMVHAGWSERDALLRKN

T7: His-NinH N18A (Bacteriophage lambda (cI857 Sam7), UniProt P03771 1-68, A15T;N18A)
T7 sequence: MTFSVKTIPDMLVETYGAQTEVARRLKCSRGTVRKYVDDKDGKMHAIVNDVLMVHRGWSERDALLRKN


Tests used:
[1] = biological target: T1, His-NinH wt; assay: EMSA; assembles on each arm; MST: PBS pH 7.4 + 0.05% Tween-20, 22 C; anisotropy: 6.7 mM Tris-HCl pH 8.0, 3.3 nM (so in the source) sodium acetate, 2 mM EDTA, 25 C; EMSA (32P): 50 mM Tris-HCl pH 8.0, 5 mM EDTA, 1 mM DTT, 5% glycerol, 100 ug/ml BSA, on ice; EMSA (Cy520): PBS pH 7.4, room temp; details: protein: recombinant; tags: N-His6; chain copies: 2; label: 5'-32P on strand 1; four-way junction, 11 bp homologous core
[2] = biological target: T1, His-NinH wt; assay: EMSA; sub-micromolar; PBS; MST: PBS pH 7.4 + 0.05% Tween-20, 22 C; anisotropy: 6.7 mM Tris-HCl pH 8.0, 3.3 nM (so in the source) sodium acetate, 2 mM EDTA, 25 C; EMSA (32P): 50 mM Tris-HCl pH 8.0, 5 mM EDTA, 1 mM DTT, 5% glycerol, 100 ug/ml BSA, on ice; EMSA (Cy520): PBS pH 7.4, room temp; details: protein: recombinant; tags: N-His6; chain copies: 2; label: 5'-Cy5 on strand 1; blunt
[3] = biological target: T2, His-NinH H45A; assay: MST; retained significant binding; MST: PBS pH 7.4 + 0.05% Tween-20, 22 C; anisotropy: 6.7 mM Tris-HCl pH 8.0, 3.3 nM (so in the source) sodium acetate, 2 mM EDTA, 25 C; EMSA (32P): 50 mM Tris-HCl pH 8.0, 5 mM EDTA, 1 mM DTT, 5% glycerol, 100 ug/ml BSA, on ice; EMSA (Cy520): PBS pH 7.4, room temp; details: protein: recombinant; tags: N-His6; label: 5'-Cy5 on strand 1; blunt
[4] = biological target: T3, His-NinH K35A; assay: MST; MST: PBS pH 7.4 + 0.05% Tween-20, 22 C; anisotropy: 6.7 mM Tris-HCl pH 8.0, 3.3 nM (so in the source) sodium acetate, 2 mM EDTA, 25 C; EMSA (32P): 50 mM Tris-HCl pH 8.0, 5 mM EDTA, 1 mM DTT, 5% glycerol, 100 ug/ml BSA, on ice; EMSA (Cy520): PBS pH 7.4, room temp; details: protein: recombinant; tags: N-His6; chain copies: 2; label: 5'-Cy5 on strand 1; blunt
[5] = biological target: T1, His-NinH wt; assay: as above; details: protein: recombinant; tags: N-His6; chain copies: 2; label: 5'-Cy5 on strand 1; blunt
[6] = biological target: T4, His-NinH T32A; assay: as above; details: protein: recombinant; tags: N-His6; chain copies: 2; label: 5'-Cy5 on strand 1; blunt
[7] = biological target: T5, His-NinH S29A; assay: as above; details: protein: recombinant; tags: N-His6; chain copies: 2; label: 5'-Cy5 on strand 1; blunt
[8] = biological target: T6, His-NinH R56A; assay: as above; details: protein: recombinant; tags: N-His6; chain copies: 2; label: 5'-Cy5 on strand 1; blunt
[9] = biological target: T7, His-NinH N18A; assay: MST; intermediate effect; MST: PBS pH 7.4 + 0.05% Tween-20, 22 C; anisotropy: 6.7 mM Tris-HCl pH 8.0, 3.3 nM (so in the source) sodium acetate, 2 mM EDTA, 25 C; EMSA (32P): 50 mM Tris-HCl pH 8.0, 5 mM EDTA, 1 mM DTT, 5% glycerol, 100 ug/ml BSA, on ice; EMSA (Cy520): PBS pH 7.4, room temp; details: protein: recombinant; tags: N-His6; chain copies: 2; label: 5'-Cy5 on strand 1; blunt

Binder | binding result [1] | Kd [2] [nM] | Kd [3] [nM] | binding result [4] | Kd [5] [nM] | binding result [6] | Kd [7] [nM] | binding result [8] | Kd [9] [nM]
Holliday junction HJ (structured_DNA) DNA 1: GGCGACGTGATCACCAGATGATTGCTAGGCATGCTTTCCGCAAGAGAAGC DNA 2: GGCTTCTCTTGCGGAAAGCATGCCTAGCAATCCTGTCAGCTGCATGGAAC DNA 3: GGTTCCATGCAGCTGACAGGATTGCTAGGCTCAAGGCGAACTGCTAACGG DNA 4: ACCGTTAGCAGTTCGCCTTGAGCCTAGCAATCATCTGGTGATCACGTCGC | binds |  |  |  |  |  |  |  | 
Cy520 (NinH consensus) (dsDNA) DNA 1: ACCGATCAAGAATTGTGCAT DNA 2: ATGCACAATTCTTGATCGGT |  | < 1000 | > 350 | no binding | 5.6 ± 1.5 | no binding | 13 ± 2.7 | no binding | > 220
